US20250388637A1

Target: Recombinant human PDGF-B (human) (UniProt P01127)

**Q.** Which inhibition of PDGF-B stimulated PDGFR-β phosphorylation, BHK-21/PDGFR-β cells does the source give for MBP-GCN4-Prodomain here?
**A.** 16%
